T1: Mcl-1, Q07820
T1 chain: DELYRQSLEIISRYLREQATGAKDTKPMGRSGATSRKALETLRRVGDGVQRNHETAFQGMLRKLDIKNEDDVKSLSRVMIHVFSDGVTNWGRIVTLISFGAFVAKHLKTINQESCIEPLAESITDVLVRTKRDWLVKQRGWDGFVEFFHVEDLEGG

The target of one assay is Bcl-xL, Q07817. In words: peptide SPOT array, c-Myc-tagged receptor at 1 uM or 100 nM, anti-c-Myc-Cy3.
Sequence of Bcl-xL, Q07817 (Q07817 1-209): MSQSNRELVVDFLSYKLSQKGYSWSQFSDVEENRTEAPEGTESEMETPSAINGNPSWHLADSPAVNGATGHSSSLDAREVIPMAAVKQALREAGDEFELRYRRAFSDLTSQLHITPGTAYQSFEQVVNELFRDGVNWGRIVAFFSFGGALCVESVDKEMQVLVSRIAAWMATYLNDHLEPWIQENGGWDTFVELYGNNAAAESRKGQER
Molecule RHFVIRRGQVLREILEEYGGVMVSFP [HDLBP] came in with an SPOT signal as a fraction of Bim BH3's signal on the same receptor and array of 0.04.
On the same count and under the same terms, with KLPVVGIGKHLCGMATDLALRCLVET the figure was 0.04; with DLLGMVVVDELHMLLDSHRGYLLELL [POLQ], 0.02; with QRLINLVGESDRLLGNTFVALSDLRC, 0.08.
As to DLSAVTLSRELQAMAEQLAENYHNTW [RYR1], the SPOT signal as a fraction of Bim BH3's signal on the same receptor and array is 0.02.
Regarding SRQPRDFGDSLARGLKGFLRGVVGGV [VPS13C], the SPOT signal as a fraction of Bim BH3's signal on the same receptor and array was 0.34.
For TLHFNQRGTWLASGSDDLKVVVWDWV, the SPOT signal as a fraction of Bim BH3's signal on the same receptor and array stood at 0.02.
Same read-out and setting: with KNIAGALAFWDANASELLNFIKQDRD [MLLT4] the figure was 0.02.
As for KRALIQCAKDIAKALDEVTRLAKEVA, the SPOT signal as a fraction of Bim BH3's signal on the same receptor and array worked out at 0.21.
Molecule AIKWDPTGNLDASCSDDMTLKIWSMK [TBL1XR1] showed an SPOT signal as a fraction of Bim BH3's signal on the same receptor and array of 0.03.
The molecule DHTDGVVACAAGLIGDLCTAFGKDVL returned an SPOT signal as a fraction of Bim BH3's signal on the same receptor and array of 0.02.
LSPGRSVTAGIIIVGDEILKGHTQDT [FLAD1]: the SPOT signal as a fraction of Bim BH3's signal on the same receptor and array is 0.01.
The molecule CILNSFYGYVMRKGLRWYSMEMAGIV [POLE] yielded an SPOT signal as a fraction of Bim BH3's signal on the same receptor and array of 0.29.
Still for that read-out and setting: with RCELQICGLAMADALEYLCVCGQERT [OBSCN] the figure was 0.02.
In the case of GSGLHGWAFTDKQFAEMYVAKFAAKG [EEF2], the SPOT signal as a fraction of Bim BH3's signal on the same receptor and array was determined as 0.12.
On the same count and under the same terms, with CDLLGAKGKDILYIGDHIFGDILKSK [NT5C2] the figure was 0.04; with VLSRIEAGRSDKSVMDEFGISKSTFY, 0.02.
On to DHTDGVVACAAGLILDLCTAFGKDVL, for which the SPOT signal as a fraction of Bim BH3's signal on the same receptor and array is 0.01.
The molecule ITVVGDVGGRDAIIVDDIIDDVESFV [PRPSAP1] showed an SPOT signal as a fraction of Bim BH3's signal on the same receptor and array of 0.02.
The molecule SKFVILSAHKLVFIGDTLTRQVTAQD [NEDD9] came in with an SPOT signal as a fraction of Bim BH3's signal on the same receptor and array of 0.05.
QRLINLVGESLRLLGNTFVALSDLRC: the SPOT signal as a fraction of Bim BH3's signal on the same receptor and array worked out at 0.05.
Regarding GKPETCTGQDLADLLDRLRDWFQLLH [SPOCK2], the SPOT signal as a fraction of Bim BH3's signal on the same receptor and array is 0.02.
Molecule NKTMTQLSSTLARCAKDILGFAVMFF [PKD2L1] registered an SPOT signal as a fraction of Bim BH3's signal on the same receptor and array of 0.15.
In turn, LRCEMASTGEDACFGEGIHTAFLKAM [CPS1] returned an SPOT signal as a fraction of Bim BH3's signal on the same receptor and array of 0.02.
With CALLGSTGERDCLAGDSAGGNLCFTV [LIPE], the SPOT signal as a fraction of Bim BH3's signal on the same receptor and array amounted to 0.01.
Take TPSRSALSSEDSLVGDTTGDTLEKFV: the SPOT signal as a fraction of Bim BH3's signal on the same receptor and array is 0.01.
As to KRALIQCAKDDAKASDEVTRLAKEVA, the SPOT signal as a fraction of Bim BH3's signal on the same receptor and array is 0.05.
With KLPVVGIGKHLCGMLTDLALRCLVET, the SPOT signal as a fraction of Bim BH3's signal on the same receptor and array came out at 0.04.
With FRLAQMCGLHIVVHADELEELINYYQ [CLTC], the SPOT signal as a fraction of Bim BH3's signal on the same receptor and array came out at 0.02.
With RDPQGWVAGNLSARGDGAAGFTLPGF [MST1R], the SPOT signal as a fraction of Bim BH3's signal on the same receptor and array was determined as 0.02.
Molecule VLSRIEAGRSLKSVMDEFGISKSTFY yielded an SPOT signal as a fraction of Bim BH3's signal on the same receptor and array of 0.11.
With DEHISYVATKVCHLGDQLEGVNTPRQ [EXOC5], the SPOT signal as a fraction of Bim BH3's signal on the same receptor and array amounted to 0.02.
Molecule TPSRSALSSELSLVLDTTGDTLEKFV yielded an SPOT signal as a fraction of Bim BH3's signal on the same receptor and array of 0.02.
On the same count and under the same terms, with FRFAQLCGLHIVIHLDELEELMCYYQ [CLTCL1] the figure was 0.02; with AALFLHAGCQLLTALEDGKVQVWSGS [TEP1], 0.02.
The molecule AVLCVECGYKDRFFGEDAEIAARELN [MSH3] gave an SPOT signal as a fraction of Bim BH3's signal on the same receptor and array of 0.02.
Still for that read-out and setting: with TLHFNQRGTWLASGLDDLKVVVWDWV the figure was 0.02.

Another assay has as its target T1, Mcl-1, Q07820. The description is as above.
RHFVIRRGQVLREILEEYGGVMVSFP [HDLBP] registered an SPOT signal as a fraction of Bim BH3's signal on the same receptor and array of 0.05.
Same read-out and setting: with KLPVVGIGKHLCGMATDLALRCLVET the figure was 0.03; with DLLGMVVVDELHMLLDSHRGYLLELL [POLQ], 0.02.
Molecule QRLINLVGESDRLLGNTFVALSDLRC returned an SPOT signal as a fraction of Bim BH3's signal on the same receptor and array of 0.02.
Same read-out and setting: with DLSAVTLSRELQAMAEQLAENYHNTW [RYR1] the figure was 0.02; with SRQPRDFGDSLARGLKGFLRGVVGGV [VPS13C], 0.18.
On the same count and under the same terms, with TLHFNQRGTWLASGSDDLKVVVWDWV the figure was 0.02.
Regarding KNIAGALAFWDANASELLNFIKQDRD [MLLT4], the SPOT signal as a fraction of Bim BH3's signal on the same receptor and array turned out to be 0.02.
For the molecule KRALIQCAKDIAKALDEVTRLAKEVA, the SPOT signal as a fraction of Bim BH3's signal on the same receptor and array worked out at 0.05.
On the same count and under the same terms, with AIKWDPTGNLDASCSDDMTLKIWSMK [TBL1XR1] the figure was 0.03; with DHTDGVVACAAGLIGDLCTAFGKDVL, 0.02.
Still for that read-out and setting: with LSPGRSVTAGIIIVGDEILKGHTQDT [FLAD1] the figure was 0.01.
Consider CILNSFYGYVMRKGLRWYSMEMAGIV [POLE], for which the SPOT signal as a fraction of Bim BH3's signal on the same receptor and array was 0.24.
RCELQICGLAMADALEYLCVCGQERT [OBSCN]: the SPOT signal as a fraction of Bim BH3's signal on the same receptor and array was 0.02.
In the case of GSGLHGWAFTDKQFAEMYVAKFAAKG [EEF2], the SPOT signal as a fraction of Bim BH3's signal on the same receptor and array came out at 0.03.
CDLLGAKGKDILYIGDHIFGDILKSK [NT5C2] had an SPOT signal as a fraction of Bim BH3's signal on the same receptor and array of 0.04.
Consider VLSRIEAGRSDKSVMDEFGISKSTFY, for which the SPOT signal as a fraction of Bim BH3's signal on the same receptor and array was found to be 0.02.
As for DHTDGVVACAAGLILDLCTAFGKDVL, the SPOT signal as a fraction of Bim BH3's signal on the same receptor and array amounted to 0.02.
In turn, ITVVGDVGGRDAIIVDDIIDDVESFV [PRPSAP1] showed an SPOT signal as a fraction of Bim BH3's signal on the same receptor and array of 0.01.
In turn, SKFVILSAHKLVFIGDTLTRQVTAQD [NEDD9] came in with an SPOT signal as a fraction of Bim BH3's signal on the same receptor and array of 0.04.
In the case of QRLINLVGESLRLLGNTFVALSDLRC, the SPOT signal as a fraction of Bim BH3's signal on the same receptor and array is 0.03.
The same measure, in the same setting: with GKPETCTGQDLADLLDRLRDWFQLLH [SPOCK2] the figure was 0.01; with NKTMTQLSSTLARCAKDILGFAVMFF [PKD2L1], 0.11.
Still for that read-out and setting: with LRCEMASTGEDACFGEGIHTAFLKAM [CPS1] the figure was 0.03.
The same measure, in the same setting: with CALLGSTGERDCLAGDSAGGNLCFTV [LIPE] the figure was 0.01; with TPSRSALSSEDSLVGDTTGDTLEKFV, 0.01.
Molecule KRALIQCAKDDAKASDEVTRLAKEVA had an SPOT signal as a fraction of Bim BH3's signal on the same receptor and array of 0.02.
The molecule KLPVVGIGKHLCGMLTDLALRCLVET yielded an SPOT signal as a fraction of Bim BH3's signal on the same receptor and array of 0.03.
On the same count and under the same terms, with FRLAQMCGLHIVVHADELEELINYYQ [CLTC] the figure was 0.02; with RDPQGWVAGNLSARGDGAAGFTLPGF [MST1R], 0.02; with VLSRIEAGRSLKSVMDEFGISKSTFY, 0.11.
In the case of DEHISYVATKVCHLGDQLEGVNTPRQ [EXOC5], the SPOT signal as a fraction of Bim BH3's signal on the same receptor and array came to 0.01.
Same read-out and setting: with TPSRSALSSELSLVLDTTGDTLEKFV the figure was 0.01; with FRFAQLCGLHIVIHLDELEELMCYYQ [CLTCL1], 0.03.
Regarding AALFLHAGCQLLTALEDGKVQVWSGS [TEP1], the SPOT signal as a fraction of Bim BH3's signal on the same receptor and array is 0.01.
Still for that read-out and setting: with AVLCVECGYKDRFFGEDAEIAARELN [MSH3] the figure was 0.02; with TLHFNQRGTWLASGLDDLKVVVWDWV, 0.02.
